Source: US20210292396A1
Several values for one entry are separate records, joined by “and”; a condition that tells them apart may be missing. Identical values can stand only once.

Columns and labels:
Test in all cases: cell-based or functional assay
[1] = target: HIV Env of isolate 0815.v3.c3 (HIV)
[2] = target: HIV Env of isolate 1054_07_TC4_1499 (HIV)
[3] = target: HIV Env of isolate 1056_10_TA11_1826 (HIV)
[4] = target: HIV Env of isolate 235-47 (HIV)
[5] = target: HIV Env of isolate 263-8 (HIV)
[6] = target: HIV Env of isolate 3103.v3.c10 (HIV)
[7] = target: HIV Env of isolate 6244_13_B5_4576 (HIV)
[8] = target: HIV Env of isolate 6480.v4.c25 (HIV)
[9] = target: HIV Env of isolate 7030102001E5(Rev-) (HIV)
[10] = target: HIV Env of isolate CAAN5342.A2 (HIV)
[11] = target: HIV Env of isolate CAP210.2.00.E8 (HIV)
[12] = target: HIV Env of isolate CNE17 (HIV)
[13] = target: HIV Env of isolate Ce1176_A3 (HIV)
[14] = target: HIV Env of isolate Ce704809221_1B3 (HIV)
[15] = target: HIV Env of isolate Du156.12 (HIV)
[16] = target: HIV Env of isolate Du172.17 (HIV)
[17] = target: HIV Env of isolate Du422.1 (HIV)
[18] = target: HIV Env of isolate HIV-16845-2.22 (HIV)
[19] = target: HIV Env of isolate P0402_C2_11 (HIV)
[20] = target: HIV Env of isolate PVO.4 (HIV)
[21] = target: HIV Env of isolate RHPA4259.7 (HIV)
[22] = target: HIV Env of isolate T250-4 (HIV)
[23] = target: HIV Env of isolate T251-18 (HIV)
[24] = target: HIV Env of isolate T255-34 (HIV)
[25] = target: HIV Env of isolate T278-50 (HIV)
[26] = target: HIV Env of isolate TRJO4551.58 (HIV)
[27] = target: HIV Env of isolate WITO4160.33 (HIV)
[28] = target: HIV Env of isolate ZM135M.PL10a (HIV)
[29] = target: HIV Env of isolate ZM214M.PL15 (HIV)
[30] = target: HIV Env of isolate ZM233M.PB6 (HIV)
[31] = target: HIV Env of isolate ZM247v1(Rev-) (HIV)
[32] = target: HIV Env of the 113-member cross-clade virus panel (Table 6)

B1: ePGT121.15.H2.L1 (antibody, V domains shown)
VH: QMQLQESGPGLVKPGETLSLTCSVSGASISSSYWSWLRETPGKGLEWIGYTHHSGDTNYAPSLKSRVHLGLHPSKNQVSLSLTSVTAADTAVYYCARTLHGRRIYGVVAFNEWFTYFYWEVWGKGTQVTVSS
VL: SDISVAPGETVRISCGGESIGSRAVQWYQHRAGQAPKLIIYNNQDRPPGIPERFSGSPDIDFGTTATLTITNVEAGDEATYYCHIWDSRRPTNWVFGGGTTLTVL
[1]
  neutralization (Table 6 value): 0.000394
[2]
  neutralization (Table 6 value): 0.00114
[3]
  neutralization (Table 6 value): 0.000864
[4]
  neutralization (Table 6 value): 0.00466
[5]
  neutralization (Table 6 value): 0.00351 and 0.00488
[6]
  neutralization (Table 6 value): 0.00436
[7]
  neutralization (Table 6 value): 0.00689
[8]
  neutralization (Table 6 value): 4.5e-05
[9]
  neutralization (Table 6 value): 0.00197
[10]
  neutralization (Table 6 value): 0.00112
[11]
  neutralization (Table 6 value): 0.0207
[12]
  neutralization (Table 6 value): 0.00577
[13]
  neutralization (Table 6 value): 0.00206
[14]
  neutralization (Table 6 value): 0.00143
[15]
  neutralization (Table 6 value): 0.000443
[16]
  neutralization (Table 6 value): 0.000836
[17]
  neutralization (Table 6 value): 0.00326
[18]
  neutralization (Table 6 value): 0.0222
[19]
  neutralization (Table 6 value): 0.00193
[20]
  neutralization (Table 6 value): 0.00346
[21]
  neutralization (Table 6 value): 0.00156
[22]
  neutralization (Table 6 value): 0.00084
[23]
  neutralization (Table 6 value): 0.0252
[24]
  neutralization (Table 6 value): 0.00375 and 0.00245
[25]
  neutralization (Table 6 value): 0.0127
[26]
  neutralization (Table 6 value): 0.00583
[27]
  neutralization (Table 6 value): 0.00428 and 0.00241
[28]
  neutralization (Table 6 value): 0.122
[29]
  neutralization (Table 6 value): 0.00727
[30]
  neutralization (Table 6 value): 0.0048 and 0.00672
[31]
  neutralization (Table 6 value): 0.000909
[32]
  Breadth: 77%
  GeoMean: 0.004
